Key:
[1] = system: PPIs identified as affected by the SH3 domain deletions; assay: Liquid DHFR-PCA low-throughput validation of PPIs affected by SH3 deletion (Fig. S1D-E); format: cell-based, Saccharomyces cerevisiae; settings: label = prey, liquid DHFR-PCA, prey _1 = lost, _2 = gained in screen
Method: Liquid DHFR-PCA low-throughput experiments were performed to validate the PPIs identified as affected by the SH3 domain deletions in the high-throughput solid DHFR-PCA screen (256 PPIs weaker or lost and 116 PPIs stronger or gained following domain deletions). Mating and the diploid selection were performed as described for the large-scale experiment, with the exception that the plates were in 384 formats. Following the second diploid selection, diploid cells were inoculated in a 96 v-shaped well plate using a robotically manipulated 96 pin tool in a synthetic complete medium with MSG at pH 6.0 with NAT and HPH. After 48 h of growth, optical density (OD) was read using a TECAN Infinite F200 Pro, and dilutions to 1 OD in sterile nanopure water were prepared. Cells were then diluted to 0.1 OD by combining 25 µl of cell suspension at OD = 1 and 225 µl of PCA selection media without agar in a 96-wells plate. Plates were incubated at 30 °C in a TECAN Infinite M Nano and OD was monitored each 15 min for 72 h.

[2] = system: growth of yeast strains under 51 stress conditions; assay: Growth assays in 51 stress conditions (Fig. 1E-F, S2D, S5B); format: cell-based, Saccharomyces cerevisiae; set-up: key to Growth (Fig. S2D) / growth of ABP1 SH3-swapped strains in stress condition: log2 colony size, average of median per strain (growth score); settings: ABP1 SH3-swapped strains
Method: All WT, SH3-deleted, KO (except for CDC25 which is the only essential SH3-containing gene in yeast), ABP1 SH3-swapped, and SLA1 SH3-shuffled strains were grown on omnitrays in 1536 formats and robotically manipulated with a pin tool (the DHFR F[1,2] bait strains were used except for the KO strains). Each strain was randomly positioned in 6 replicates per plate and two plates per condition were performed, for 12 replicates per strain in total. A border of two rows and two columns of WT strains (BY4741) around the plate was used to remove border effects. Strains were grown on YPD media for two days at 30 °C. They were then replicated on 51 different media that are described in the Supplementary Table 3 and were incubated at 37 °C in a spImager custom platform with images acquired every two hours for four days. The colony sizes from plate pictures were also measured with the R package “Gitter” and the output was manually inspected. Positions with an abnormality in colony circularity were removed. The colony sizes after 74 h of incubation at 37 °C were log2 transformed and used for the analyses. First, the differences between the two plate replicates were corrected to remove plate effects. The median colony size was calculated for each strain per plate. Strains with a difference in their median colony size of more than two between the two plate replicates were removed. Finally, the average of the median colony size was calculated for each strain per condition (growth score).

B1: YOR039W_2 (protein, UniProt P38930 1-258, looked up)
Casein kinase II subunit beta': MGSRSENVGTVTREGSRVEQDDVLMDDDSDSSEYVDMWIDLFLGRKGHEYFCDVDPEYITDRFNLMNLQKTVSKFSYVVQYIVDDLDDSILENMTHARLEQLESDSRKLYGLIHARYIITIKGLQKMYAKYKEADFGRCPRVYCNLQQLLPVGLHDIPGIDCVKLYCPSCEDLYIPKSSRHSSIDGAYFGTSFPGMFLQAFPDMVPKHPTKRYVPKIFGFELHKQAQLTRWQELQRLKLVEKLESKDVDLTKSGGFKT
Question: With B1 as the molecule, how does the “Ratio (Deletedscore / WTscore)” value ([1]; bait LSB3) read?
Answer: Its value is 1.116.

B2: YFR004W_2 (protein, UniProt P43588 1-306, looked up)
Ubiquitin carboxyl-terminal …: MERLQRLMMNSKVGSADTGRDDTKETVYISSIALLKMLKHGRAGVPMEVMGLMLGEFVDDYTVNVVDVFAMPQSGTGVSVEAVDDVFQAKMMDMLKQTGRDQMVVGWYHSHPGFGCWLSSVDVNTQKSFEQLNSRAVAVVVDPIQSVKGKVVIDAFRLIDTGALINNLEPRQTTSNTGLLNKANIQALIHGLNRHYYSLNIDYHKTAKETKMLMNLHKEQWQSGLKMYDYEEKEESNLAATKSMVKIAEQYSKRIEEEKELTEEELKTRYVGRQDPKKHLSETADETLENNIVSVLTAGVNSVAIK
Question: Which “Ratio (Deletedscore / WTscore)” value ([1]; bait ABP1) does the source give for B2 here?
Answer: The value was 1.111.

Question: And the “Ratio (Deletedscore / WTscore)” value ([1]; bait LSB3)?
Answer: Its value is 1.521.

Question: What about the “Ratio (Deletedscore / WTscore)” value ([1]; bait MYO3) of the same molecule?
Answer: The value was 1.308.

Question: And the “Ratio (Deletedscore / WTscore)” value ([1]; bait MYO5)?
Answer: The value was 1.194.

Question: And the “Ratio (Deletedscore / WTscore)” value ([1]; bait RVS167)?
Answer: The value was 1.454.

B3: YPL246C_2 (protein, UniProt Q12270 1-262, looked up)
Rhomboid-type serine protease …: MNWKSYVFPGGHPPAALTTGLVVFLTAIYLLSFIFALREDLSLAPESLFKLQMSRLSLYPLIHLSLPHLLFNVLAIWAPLNLFEETHGTVYTGVFLNLSALFAGILYCLLGKLLYPEALVAGASGWCFTLFAYYSFKESQIRPRTRIFRTDYSIPTLYTPLVLLVAIAVVIPGSSFWGHFFGLCVGYAIGYKESWFNKITPPGWIITKIEKSLDGLIRLIPWGIKYYRDEDIDRTKDYEPLMSTETPLPLHNDNSGTVLGTA
Question: For B3, which “Ratio (Deletedscore / WTscore)” value ([1]; bait ABP1) is on record?
Answer: The value was 1.339.

Question: What about the “Ratio (Deletedscore / WTscore)” value ([1]; bait LSB3) of the same molecule?
Answer: The value was 1.364.

Question: And the “Ratio (Deletedscore / WTscore)” value ([1]; bait SHO1)?
Answer: The value was 1.171.

B4: YOR081C_2 (protein, UniProt Q12043 1-749, looked up)
Triacylglycerol lipase 5: MSNTLPVTEFLLSKYYELSNTPATDSSSLFKWLYHKTLSRKQLLISDLSSQKKHAISYDQWNDIASRLDDLTGLSEWKTIDESSLYNYKLLQDLTIRMRHLRTTHDYHRLLYLIRTKWVRNLGNMNNVNLYRHSHTGTKQIIHDYLEESQAVLTALIHQSNMNDHYLLGILQQTRRNIGRTALVLSGGSTFGLFHIGVLAALFESDLMPKVISGSSAGAIVASIFCVHTTQEIPSLLTNVLNMEFNIFNDDNSKSPNENLLIKISRFCQNGTWFNNQPLINTMLSFLGNLTFREAYNKTGKILNITVSPASIYEQPKLLNNLTAPNVLIWSAVCASCSLPGVFPSTPLFEKDPHTGKIKEWGATNLHLSNMKFMDGSVDNDMPISRLSEMFNVDHIIACQVNIHVFPLLKFSNTCVGGEIEKEITARFRNQVTKIFKFFSDETIHFLDILKELEFHPYLMTKLKHLFLQQYSGNVTILPDLSMVGQFHEVLKNPSQLFLLHQTTLGARATWPKISMIQNNCGQEFALDKAITFLKEKIIISSSIKNPLQFYQPRFSEQIKSLSIMDADLPGVDLEESSSNSLSIIKSPNKTAAPGRFPLQPLPSPSSTFNKRKMDMLSPSPSPSTSPQRSKSSFTQQGTRQKANSLSFAIGASSLRLKKSPLKVPSRPQFKKRSSYYNQNMSAEMRKNRKKSGTISSYDVQTNSEDFPIPAIENGSFDNTLFNPSRFPMDAMSAATNDNFMNNSDIFQN
Question: Which “Ratio (Deletedscore / WTscore)” value ([1]; bait LSB3) does the source give for B4 here?
Answer: Its value is 1.383.

B5: YGR037C_2 (protein, UniProt P31787 1-87, looked up)
Acyl-CoA-binding protein: MVSQLFEEKAKAVNELPTKPSTDELLELYALYKQATVGDNDKEKPGIFNMKDRYKWEAWENLKGKSQEDAEKEYIALVDQLIAKYSS
Question: How did the “Ratio (Deletedscore / WTscore)” value ([1]; bait LSB3) turn out when B5 was run?
Answer: Its value is 1.675.

Question: What about the “Ratio (Deletedscore / WTscore)” value ([1]; bait MYO3) of the same molecule?
Answer: Its value is 1.004.

Question: What about the “Ratio (Deletedscore / WTscore)” value ([1]; bait MYO5) of the same molecule?
Answer: The value was 0.9102.

B6: ABP1 WT (protein, UniProt P15891 2-592, looked up)
Actin-binding protein: ALEPIDYTTHSREIDAEYLKIVRGSDPDTTWLIISPNAKKEYEPESTGSSFHDFLQLFDETKVQYGLARVSPPGSDVEKIIIIGWCPDSAPLKTRASFAANFAAVANNLFKGYHVQVTARDEDDLDENELLMKISNAAGARYSIQTSSKQQGKASTPPVKKSFTPSKSPAPVSKKEPVKTPSPAPAAKISSRVNDNNDDDDWNEPELKERDFDQAPLKPNQSSYKPIGKIDLQKVIAEEKAKEDPRLVQKPTAAGSKIDPSSDIANLKNESKLKRDSEFNSFLGTTKPPSMTESSLKNDDDKVIKGFRNEKSPAQLWAERKAKQNSGNAETKAEAPKPEVPEDEPEGEPDVKDLKSKFEGLAASEKEEEEMENKFAPPPKKSEPTIISPKPFSKPQEPVKAEEAEQPKTDYKKIGNPLPGMHIEADNEEEPEENDDDWDDDEDEAAQPPLPSRNVASGAPVQKEEPEQEEIAPSLPSRNSIPAPKQEEAPEQAPEEEIEEEAEEAAPQLPSRSSAAPPPPPRRATPEKKPKENPWATAEYDYDAAEDNELTFVENDKIINIEFVDDDWWLGELEKDGSKGLFPSNYVSLGN
Question: Which results are given for B6?
Answer: Growth (Fig. S2D) ([2]; Bathophenanthroline.0.1uM): 10.7779; Growth (Fig. S2D) ([2]; Bathophenanthroline.10uM): 10.6544; Growth (Fig. S2D) ([2]; Bathophenanthroline.1uM): 10.7233; Growth (Fig. S2D) ([2]; CaCl2.100mM): 10.745; Growth (Fig. S2D) ([2]; CaCl2.250mM): 10.6724; Growth (Fig. S2D) ([2]; CaCl2.500mM): 10.224; Growth (Fig. S2D) ([2]; Caffein.10mM): 9.987; Growth (Fig. S2D) ([2]; Caffein.2mM): 10.9881; Growth (Fig. S2D) ([2]; CdCl2.100uM): 9.742; Growth (Fig. S2D) ([2]; CdCl2.10uM): 10.8471; Growth (Fig. S2D) ([2]; CdCl2.50uM): 10.1808; Growth (Fig. S2D) ([2]; CuSO4.1mM): 10.5746; Growth (Fig. S2D) ([2]; CuSO4.5mM): 8.442; Growth (Fig. S2D) ([2]; Cycloheximide.0.05.uM): 11.0561; Growth (Fig. S2D) ([2]; Cycloheximide.0.2.uM): 10.6665; Growth (Fig. S2D) ([2]; Cycloheximide.0.5.uM): 10.4823; Growth (Fig. S2D) ([2]; DMSO.2.): 10.9822; Growth (Fig. S2D) ([2]; DMSO.6.): 9.9755; Growth (Fig. S2D) ([2]; DMSO.8.): 9.381; Growth (Fig. S2D) ([2]; Ethanol.2.): 10.76; Growth (Fig. S2D) ([2]; Ethanol.6.): 10.427; Growth (Fig. S2D) ([2]; Ethanol.8.): 10.4864; Growth (Fig. S2D) ([2]; Galactose.2.): 10.7856; Growth (Fig. S2D) ([2]; Glycerol.2.): 10.3292; Growth (Fig. S2D) ([2]; Hydroxyurea.25mM): 10.7632; Growth (Fig. S2D) ([2]; Hygromycin.190uM): 10.9263; Growth (Fig. S2D) ([2]; Hygromycin.19uM): 10.9545; Growth (Fig. S2D) ([2]; Hygromycin.95uM): 10.9494; Growth (Fig. S2D) ([2]; MMS.0.004.): 10.9625; Growth (Fig. S2D) ([2]; MMS.0.02.): 10.8338; Growth (Fig. S2D) ([2]; MMS.0.04.): 10.264; Growth (Fig. S2D) ([2]; Menadione.100uM): 10.4792; Growth (Fig. S2D) ([2]; Menadione.200uM): 10.398; Growth (Fig. S2D) ([2]; Menadione.50uM): 10.8403; Growth (Fig. S2D) ([2]; NaCl.0.25M): 10.7336; Growth (Fig. S2D) ([2]; NaCl.1M): 10.1964; Growth (Fig. S2D) ([2]; Nitroquinoline.10uM): 10.6457; Growth (Fig. S2D) ([2]; Nitroquinoline.50uM): 10.6448; Growth (Fig. S2D) ([2]; Nystatin.0.01uM): 10.9455; Growth (Fig. S2D) ([2]; Nystatin.0.1uM): 11.0177; Growth (Fig. S2D) ([2]; Raffinose.2.): 10.9059; Growth (Fig. S2D) ([2]; Rapamycin.10nM): 9.962; Growth (Fig. S2D) ([2]; Rapamycin.50nM): 9.216; Growth (Fig. S2D) ([2]; SC.pH3): 10.4509; Growth (Fig. S2D) ([2]; SC.pH6): 10.9947; Growth (Fig. S2D) ([2]; SDS.0.01.): 10.9398; Growth (Fig. S2D) ([2]; SDS.0.02.): 10.9447; Growth (Fig. S2D) ([2]; SDS.0.05.): 10.807; Growth (Fig. S2D) ([2]; Sorbitol.10mM): 10.9819; Growth (Fig. S2D) ([2]; Sorbitol.1mM): 10.9741; Growth (Fig. S2D) ([2]; Sorbitol.5mM): 10.8941
